Patent US20030235860A1, “Interactions between AR, ER, TR2, and TR4” (priority 1999, published 2003)

B1: TR2: human testicular orphan nuclear receptor 2, 603 amino acids (protein, UniProt P13056 1-603, looked up)
chain: MATIEEIAHQIIEQQMGEIVTEQQTGQKIQIVTALDHNTQGKQFILTNHDGSTPSKVILARQDSTPGKVFLTTPDAAGVNQLFFTTPDLSAQHLQLLTDNSPDQGPNKVFDLCVVCGDKASGRHYGAVTCEGCKGFFKRSIRKNLVYSCRGSKDCIINKHHRNRCQYCRLQRCIAFGMKQDSVQCERKPIEVSREKSSNCAASTEKIYIRKDLRSPLTATPTFVTDSESTRSTGLLDSGMFMNIHPSGVKTESAVLMTSDKAESCQGDLSTLANVVTSLANLGKTKDLSQNSNEMSMIESLSNDDTSLCEFQEMQTNGDVSRAFDTLAKALNPGESTACQSSVAGMEGSVHLITGDSSINYTEKEGPLLSDSHVAFRLTMPSPMPEYLNVHYIGESASRLLFLSMHWALSIPSFQALGQENSISLVKAYWNELFTLGLAQCWQVMNVATILATFVNCLHNSLQQDKMSTERRKLLMEHIFKLQEFCNSMVKLCIDGYEYAYLKAIVLFSPDHPSLENMEQIEKFQEKAYVEFQDYITKTYPDDTYRLSRLLLRLPALRLMNATITEELFFKGLIGNIRIDSVIPHILKMEPADYNSQIIGHSI
modifications: full-length
notes: human testicular orphan nuclear receptor 2, 603 amino acids

Target: T1, GST-TR4 (Homo sapiens, UniProt P49116)
T1 construct: which used the full length of TR4 containing AF-1; made in house
T1 sequence (P49116 1-615 isoform P49116-2 N175S/W419R/A428G/K503N/L504W/A613V): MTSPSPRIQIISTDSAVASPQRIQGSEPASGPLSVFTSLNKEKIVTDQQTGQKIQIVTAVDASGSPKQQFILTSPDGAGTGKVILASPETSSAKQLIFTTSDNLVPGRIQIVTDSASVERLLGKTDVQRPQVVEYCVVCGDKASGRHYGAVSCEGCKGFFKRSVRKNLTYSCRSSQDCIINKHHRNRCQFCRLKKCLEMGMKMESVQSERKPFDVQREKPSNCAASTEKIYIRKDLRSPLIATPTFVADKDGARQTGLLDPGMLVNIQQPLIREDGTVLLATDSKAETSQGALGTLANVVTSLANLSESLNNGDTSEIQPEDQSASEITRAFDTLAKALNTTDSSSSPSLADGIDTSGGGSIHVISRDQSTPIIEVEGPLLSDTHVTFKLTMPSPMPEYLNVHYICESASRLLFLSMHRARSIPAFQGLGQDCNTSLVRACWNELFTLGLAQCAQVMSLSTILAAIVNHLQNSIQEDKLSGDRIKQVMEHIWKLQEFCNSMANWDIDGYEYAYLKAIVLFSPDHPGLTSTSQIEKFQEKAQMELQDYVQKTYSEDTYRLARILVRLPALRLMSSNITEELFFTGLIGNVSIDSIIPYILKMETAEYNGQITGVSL
Test: GST-TR4 pull-down assay
Format: binding
Details: for Interaction with GST-TR4 fusion protein: [35S]-methionine labeled proteins, absence of E2, Example 3; for Interaction with GST-TR4 in pull-down assay: in vitro translated 35S methionine-labeled proteins, Example 1
Description: GST-TR4 fusion protein and GST control protein were purified as instructed by the manufacturer (Pharmacia). […] of in vitro translated 35S methionine-labeled proteins were used to perform a pull-down assay as described previously. Cacailles, et al., EMBO 14, 3741-3751 (1995).
Using a GAL4-TR4 fusion protein as bait, the yeast two-hybrid system was used to isolate several potential TR4 associated proteins. […] A GST-TR4 fusion protein pull-down assay was performed to further confirm the result. GST-TR4 fusion protein and GST control protein were purified as instructed by the manufacturer (Pharmacia).
A GST pull-down assay was performed according to the methods described previously (Lee, Y. et al. (1999) Proc. Natl. Acad Sci. USA. 96(26) 14724-9).
Briefly, the GST fusion protein and GST control protein were expressed in an Escherichia coli strain BL21 (DE3) pLys bacterial culture and recovered on glutathione-Sepharose-4B beads. Equal amounts of GST fusion protein bound to glutathione-Sepharose-4B beads were incubated for 2 h at 4° C. with 5 μl of in vitro translated [^35S]methionine-labeled protein in a total volume of 100 µl of incubation buffer (20 mM HEPES/pH 7.9, 150 mM KCl, 5 mM MgCl2, 0.5 mM EDTA, 0.5 mM dithiothreitol, 0.1% Nonidet P-40, 1 mg/ml bovine serum albumin, and 10% glycerol), and protease inhibitor mixture (1 mM phenylmethylsulfonyl fluoride, 1 μg/ml aprotinin, leupeptin, and pepstatin). The beads were then washed three times with wash buffer (20 mM Tris/pH 8.0, 100 mM NaCl, 1 mM EDTA, and 0.5% Nonidet P-40), boiled in 2×SDS sample buffer, loaded onto SDS-polyacrylamide gels, and visualized by autoradiography.

Molecule	Interaction with GST-TR4 fusion protein	Interaction with GST-TR4 in pull-down assay
AR: androgen receptor, SEQ ID NO:31	binds well	physically interact
RXR: retinoid X receptor, another member of the steroid receptor superfamily	unable to interact	no interaction
B1		physically interact
